From patent US20170209564A1

Legend:
Test in all cases: ELISA signal over HTRF expression signal, P. pastoris
Conditions in all cases: remark: other sources report otherwise
79C2 = target: 79C2
85A7 = target: 85A7
78G2 = target: 78G2
90A9 = target: 90A9
79F8 = target: 79F8
55G7 = target: 55G7
11B4 = target: 11B4
78F11 = target: 78F11
11F4 = target: 11F4
75G5 = target: 75G5
48B10 = target: 48B10
850 = target: 850
97G10 = target: 97G10
26H1 = target: 26H1
12C6 = target: 12C6
86G3 = target: 86G3
4C1 = target: 4C1
70F6 = target: 70F6
2C4 = target: 2C4
91C4 = target: 91C4
60A2 = target: 60A2
74H9 = target: 74H9
10F9 = target: 10F9
91C8 = target: 91C8
50G10 = target: 50G10
6E12 = target: 6E12
58A11 = target: 58A11
48D11 = target: 48D11
29C2 = target: 29C2
6A1 = target: 6A1
9C6 = target: 9C6
71C4 = target: 71C4
72D4 = target: 72D4
75H8 = target: 75H8
35H3 = target: 35H3
96H8 = target: 96H8
56D2 = target: 56D2
51G10 = target: 51G10

B1: CR6261 (antibody, V domains shown)
VH: EVQLVESGAEVKKPGSSVKVSCKASGGPFRSYAISWVRQAPGQGPEWMGGIIPIFGTTKYAPKFQGRVTITADDFAGTVYMELSSLRSEDTAMYYCAKHMGYQVRETMDVWGKGTTVTVSS
VL: QSVLTQPPSVSAAPGQKVTISCSGSSSNIGNDYVSWYQQLPGTAPKLLIYDNNKRPSGIPDRFSGSKSGTSATLGITGLQTGDEANYYCATWDRRPTAYVVFGGGTKLTVLG
fold increase of ratio over parental SEQ ID NO: 6 (79C2): 8.62 | ratio (binding signal/HTRF signal) (79C2): 51.2 | fold increase of ratio over parental SEQ ID NO: 6 (85A7): 4.72 | ratio (binding signal/HTRF signal) (85A7): 28 | fold increase of ratio over parental SEQ ID NO: 6 (78G2): 1.58 | ratio (binding signal/HTRF signal) (78G2): 9.36 | fold increase of ratio over parental SEQ ID NO: 6 (90A9): 7.72 | ratio (binding signal/HTRF signal) (90A9): 45.8 | fold increase of ratio over parental SEQ ID NO: 6 (79F8): 2.64 | ratio (binding signal/HTRF signal) (79F8): 15.7 | fold increase of ratio over parental SEQ ID NO: 6 (55G7): 11.8 | ratio (binding signal/HTRF signal) (55G7): 70.3 | fold increase of ratio over parental SEQ ID NO: 6 (11B4): 3.23 | ratio (binding signal/HTRF signal) (11B4): 19.2 | fold increase of ratio over parental SEQ ID NO: 6 (78F11): 3.41 | ratio (binding signal/HTRF signal) (78F11): 20.2 | fold increase of ratio over parental SEQ ID NO: 6 (11F4): 2.54 | ratio (binding signal/HTRF signal) (11F4): 15.1 | fold increase of ratio over parental SEQ ID NO: 6 (75G5): 6.38 | ratio (binding signal/HTRF signal) (75G5): 37.9 | fold increase of ratio over parental SEQ ID NO: 6 (48B10): 3.16 | ratio (binding signal/HTRF signal) (48B10): 18.8 | fold increase of ratio over parental SEQ ID NO: 6 850: 4.07 | ratio (binding signal/HTRF signal) 850: 24.2 | fold increase of ratio over parental SEQ ID NO: 6 (97G10): 2.12 | ratio (binding signal/HTRF signal) (97G10): 12.6 | fold increase of ratio over parental SEQ ID NO: 6 (26H1): 1.62 | ratio (binding signal/HTRF signal) (26H1): 9.64 | fold increase of ratio over parental SEQ ID NO: 6 (12C6): 2.43 | ratio (binding signal/HTRF signal) (12C6): 14.4 | fold increase of ratio over parental SEQ ID NO: 6 (86G3): 3.87 | ratio (binding signal/HTRF signal) (86G3): 23 | fold increase of ratio over parental SEQ ID NO: 6 (4C1): 3.92 | ratio (binding signal/HTRF signal) (4C1): 23.3 | fold increase of ratio over parental SEQ ID NO: 6 (70F6): 1.63 | ratio (binding signal/HTRF signal) (70F6): 9.66 | fold increase of ratio over parental SEQ ID NO: 6 (2C4): 4.29 | ratio (binding signal/HTRF signal) (2C4): 25.5 | fold increase of ratio over parental SEQ ID NO: 6 (91C4): 4.35 | ratio (binding signal/HTRF signal) (91C4): 25.8 | fold increase of ratio over parental SEQ ID NO: 6 (60A2): 2.53 | ratio (binding signal/HTRF signal) (60A2): 15 | fold increase of ratio over parental SEQ ID NO: 6 (74H9): 6.09 | ratio (binding signal/HTRF signal) (74H9): 36.1 | fold increase of ratio over parental SEQ ID NO: 6 (10F9): 3.93 | ratio (binding signal/HTRF signal) (10F9): 23.3 | fold increase of ratio over parental SEQ ID NO: 6 (91C8): 3.51 | ratio (binding signal/HTRF signal) (91C8): 20.8 | fold increase of ratio over parental SEQ ID NO: 6 (50G10): 4.7 | ratio (binding signal/HTRF signal) (50G10): 27.9 | fold increase of ratio over parental SEQ ID NO: 6 (6E12): 2.85 | ratio (binding signal/HTRF signal) (6E12): 16.9 | fold increase of ratio over parental SEQ ID NO: 6 (58A11): 1.67 | ratio (binding signal/HTRF signal) (58A11): 9.93 | fold increase of ratio over parental SEQ ID NO: 6 (48D11): 2.98 | ratio (binding signal/HTRF signal) (48D11): 17.7 | fold increase of ratio over parental SEQ ID NO: 6 (29C2): 2.32 | ratio (binding signal/HTRF signal) (29C2): 13.8 | fold increase of ratio over parental SEQ ID NO: 6 (6A1): 4.63 | ratio (binding signal/HTRF signal) (6A1): 27.5 | fold increase of ratio over parental SEQ ID NO: 6 (9C6): 5.54 | ratio (binding signal/HTRF signal) (9C6): 32.9 | fold increase of ratio over parental SEQ ID NO: 6 (71C4): 5.13 | ratio (binding signal/HTRF signal) (71C4): 30.4 | fold increase of ratio over parental SEQ ID NO: 6 (72D4): 6.25 | ratio (binding signal/HTRF signal) (72D4): 37.1 | fold increase of ratio over parental SEQ ID NO: 6 (75H8): 1.73 | ratio (binding signal/HTRF signal) (75H8): 10.2 | fold increase of ratio over parental SEQ ID NO: 6 (35H3): 2.94 | ratio (binding signal/HTRF signal) (35H3): 17.4 | fold increase of ratio over parental SEQ ID NO: 6 (96H8): 4.8 | ratio (binding signal/HTRF signal) (96H8): 28.5 | fold increase of ratio over parental SEQ ID NO: 6 (56D2): 2.3 | ratio (binding signal/HTRF signal) (56D2): 13.7 | fold increase of ratio over parental SEQ ID NO: 6 (51G10): 3.73 | ratio (binding signal/HTRF signal) (51G10): 22.1
